Measured values from the supplement of paper PMC9170038.

System: MS2 coat protein
Experiment: apparent KD of MS2 coat protein; designed switch direction (-1 OFF switch, 1 ON switch): 1; higher = weaker reporter binding
Outline: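 Designed RNA switches sharing common flanks were transcribed on Illumina chips by stalled E. coli RNA polymerase. They were titrated with SNAP-549-labelled MS2 coat protein, from 0.7 or 1.5 nM doubling to 3 µM, in Tris-HCl pH 7.5 buffer with KCl, MgCl2, BSA, DTT, tRNA and Tween-20. Titrations ran without input, with 200 uM small-molecule ligand, or with an oligonucleotide input. The apparent KD of each design is the median over its clusters, after curve-fitting of normalised cluster fluorescence.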

[1] = Eterna round: R95, input ligand: FMN 200 uM
[2] = Eterna round: R95, input ligand: microRNA oligo, concentration not stated
[3] = Eterna round: R95, input ligand: none
[4] = input ligand: microRNA oligo, concentration not stated

Row | Sequence | apparent KD of MS2 coat protein [1] [nM] | apparent KD of MS2 coat protein [2] [nM] | apparent KD of MS2 coat protein [3] [nM] | apparent KD of MS2 coat protein (input ligand: FMN 200 uM) [nM] | apparent KD of MS2 coat protein [4] [nM] | apparent KD of MS2 coat protein (input ligand: none) [nM]
1 | AGGUGGUGUGGAAAGGAUAUACGGUUGAGGACAUGAGGAUCACCCAUGUGGUAGAGGACGUAAGGGUAGAAGGUUCGGGAUUGGU [JR_SS@_Sub022] (puzzle: Same State 2) | 41.2 | 36.5 | 41.7 | – | – | –
2 | AGUAGUGUAACAUGAGGAUCACCCAUGUAAGUAGAUGUAACCUAGGAUAUGGAUGAUAUGUUAGUCCAGAAGGAGGAUUGUUUA [JR_SSNG3_Sub038] (Eterna round: R96, puzzle: Same State NG 3) | – | – | – | 20.6 | 36.7 | 34.8
3 | AGUCAAGACAUGAGGAUCACCCAUGUUGGGAACAUGGAGGACGAGGAUAUGUGUCGAUAUGUGACGUAGAAGGCGUCAGACAAA [Eternabot solution 33] (Eterna round: R96, puzzle: Same State NG 3) | – | – | – | 189 | 224 | 419
4 | AGUCCAGCAUAAGCUGGACAAAAGCAUGUACAUGAGGAUCACCCAUGUUCAUGUACAAGCUUUUUGCAAGUCAAAAU [Mat - hsa-mir-208a - Mod of JL - 82] (puzzle: Sensor for hsa-mir-208a) | 374 | 18 | 734 | – | – | –
5 | AGUCCAGCCAAAGCUGGACAAAAGCAUGUACAUGAGGAUCACCCAUGUUCAUGUACAAGCUUUUUGCAAGUCAAAAU [Mat - hsa-mir-208a - Mod of JL - 78] (puzzle: Sensor for hsa-mir-208a) | 542 | 17.1 | 433 | – | – | –
6 | AGUCCAGCCAGAGCUGGACAAAAGCAUGUACAUGAGGAUCACCCAUGUUCAUGUACAAGCUUUUUGCAAGUCAAAAG [Mat - hsa-mir-208a - Mod of JL - 74] (puzzle: Sensor for hsa-mir-208a) | 503 | 25.9 | 780 | – | – | –
7 | AGUCCAGCCUAAGCUGGACAAAAGCAUGUACAUGAGGAUCACCCAUGUUCAUGUACAAGCUUUUUGCAAGUCAAAAU [Mat - hsa-mir-208a - Mod of JL - 79] (Eterna round: R96, puzzle: Sensor for hsa-mir-208a) | – | – | – | 837 | 19.1 | 725
8 | AGUCCAGCCUAAGCUGGACAAAAGCAUGUACAUGAGGAUCACCCAUGUUCAUGUACAAGCUUUUUGCAAGUCAAAAU [Mat - hsa-mir-208a - Mod of JL - 79] (puzzle: Sensor for hsa-mir-208a) | 1050 | 19.3 | 1050 | – | – | –
9 | AGUCCAGCCUGAGCUGGACAAAAGCAUGUACAUGAGGAUCACCCAUGUCAUGUACAAGCUUUUUGCUCAUCUUAAAA [Mat - hsa-mir-208a - Mod of JL - D11] (Eterna round: R96, puzzle: Sensor for hsa-mir-208a) | – | – | – | 750 | 11.8 | 886
10 | AGUCCAGCCUGAGCUGGACAAAAGCAUGUACAUGAGGAUCACCCAUGUCAUGUACAAGCUUUUUGCUCAUCUUAAAA [Mat - hsa-mir-208a - Mod of JL - D11] (puzzle: Sensor for hsa-mir-208a) | 624 | 16.4 | 922 | – | – | –
11 | AGUCCAGCCUGAGCUGGACAAAAGCAUGUACAUGAGGAUCACCCAUGUCAUGUACAAGCUUUUUGCUCGUCUAAAAU [Mat - hsa-mir-208a - Mod of JL - D6] (puzzle: Sensor for hsa-mir-208a) | 430 | 16.3 | 675 | – | – | –
12 | AGUCCAGCCUGAGCUGGACAAAAGCAUGUACAUGAGGAUCACCCAUGUUCAUGUACAAGCUUUUUGCUCGUCAAAAG [Mat - hsa-mir-208a - Mod of JL - 67] (puzzle: Sensor for hsa-mir-208a) | 180 | 18.3 | 372 | – | – | –
13 | AGUCCAGCCUGAGCUGGACAAAAGCAUGUACAUGAGGAUCACCCAUGUUCAUGUACAAGCUUUUUGCUCGUCUUACG [salish99_208a_r3_078] (puzzle: Sensor for hsa-mir-208a) | 673 | 17.1 | 638 | – | – | –
14 | AGUCCAGCCUGAGCUGGACAAAAGCAUGUACAUGAGGAUCACCCAUGUUCAUGUACAAGCUUUUUGCUCGUCUUAUG [salish99_208a_r3_051] (puzzle: Sensor for hsa-mir-208a) | 1040 | 17 | 634 | – | – | –
15 | AGUCCAGCCUGAGCUGGACAAAAGCAUGUACAUGAGGAUCACCCAUGUUCAUGUACAAGCUUUUUGCUCGUCUUGAA [salish99_208a_r3_095x] (Eterna round: R96, puzzle: Sensor for hsa-mir-208a) | – | – | – | 646 | 16.1 | 572
16 | AGUCCAGCCUGAGCUGGACAAAAGCAUGUACAUGAGGAUCACCCAUGUUCAUGUACAAGCUUUUUGCUCGUCUUGAA [salish99_208a_r3_095x] (puzzle: Sensor for hsa-mir-208a) | 710 | 13.5 | 817 | – | – | –
17 | AGUCCAGCCUGAGCUGGACAAAGACAUGUACAUGAGGAUCACCCAUGUCAUGUACAAGUUUUUUGCUCGUCUUAUAA (puzzle: Sensor for hsa-mir-208a) | 36.7 | 12.5 | 44.1 | – | – | –
18 | AGUCCAGCCUGAGCUGGACAAAGGCAUGUACAUGAGGAUCACCCAUGUCAUGUACAAGCUUUUUGCUCGUCUUAAUA [Zipper 49 - 1] (Eterna round: R96, puzzle: Sensor for hsa-mir-208a) | – | – | – | 211 | 12.6 | 178
19 | AGUCCAGCCUGAGCUGGACAAAGGCAUGUACAUGAGGAUCACCCAUGUCAUGUACAAGCUUUUUGCUCGUCUUAAUA [Zipper 49 - 1] (puzzle: Sensor for hsa-mir-208a) | 177 | 15 | 220 | – | – | –
20 | AGUCCAGCCUGAGCUGGACAAAGGCAUGUACAUGAGGAUCACCCAUGUUCAUGUACAAGCUUUUUGCUCGUCUUAAA [Zipper 52 - 1] (puzzle: Sensor for hsa-mir-208a) | 140 | 11.4 | 181 | – | – | –
21 | AGUCCAGCGAAAGCUGGACAAAAGUAUGUACAUGAGGAUCACCCAUGUUCAUGUACAAGCUUUUUGCUCGUCUUAAA [JL mod - D95 - 10] (puzzle: Sensor for hsa-mir-208a) | 578 | 20.3 | 620 | – | – | –
22 | AGUCCUGAAAAGAAAAUAAAGAGAGAUGUACAUGAGGAUCACCCAUGUCAUGUACAAGUUCUAUGCUCGUCAUAUAA [Sensorship 23 - Jieux - Sensor for hsa-mir-208a] (puzzle: Sensor for hsa-mir-208a) | 913 | 113 | 1430 | – | – | –
23 | AGUCCUGAAAGGAAAAUUAUAAGUGAUGUACAUGAGGAUCACCCAUGUCAUGUACAAGUUCUAUGCUCGUCUUAUAA [Sensorship 25 - Jieux - Sensor for hsa-mir-208a] (puzzle: Sensor for hsa-mir-208a) | 222 | 34.1 | 216 | – | – | –
24 | AGUCCUGAAUAAAUUAAACAGAGACAUGUACAUGAGGAUCACCCAUGUCAUGUGCAAGUUUUAUGCUCGUCAUAUAA [Sensorship 18 - Jieux - Sensor for hsa-mir-208a] (puzzle: Sensor for hsa-mir-208a) | 13 | 8.35 | 12.8 | – | – | –
25 | AGUCUACGGUGACGUAGACAGUGGUGCGUACAUGAGGAUCACCCAUGUCAUGUGAGAGUUACUUGUUCGUCUUGAGC [SENSOR #4] (puzzle: Sensor for hsa-mir-208a) | 20.7 | 21.7 | 22.6 | – | – | –
26 | AGUUGUGGAAAACUAUAGCAAAAGCAUGUACAUGAGGAUCACCCAUGUCAUGUACAAGCUUUUUGCUCGUCUUAUGG [ak 3 mod of one Eli's designs.] (puzzle: Sensor for hsa-mir-208a) | 25 | 13.9 | 50.3 | – | – | –
27 | AUAAAACAUGAGGAUCACCCAUGUAAUCGCCAGACAGGAUAUAUAGUGGCAUUUGCAGGGAUAGAAGGGUCGUGGC [Lerainxege] (puzzle: Same State 1) | 15.6 | 35.1 | 37 | – | – | –
